Entries after “also recorded” stand apart in the source; their conditions may differ.
How the values were obtained:
MC5R = assay: Effect of divalent ions on cAMP accumulation, MC5R; type: cell-based, human
Method: (§1) For assessing the effect of divalent ions on cAMP signaling, HEK293T cells were digested with 0.02% (w/v) EDTA and washed three times with calcium/magnesium-free HBSS buffer. Then the cells were resuspended and stimulated with different concentrations of ligands in Ca^2+-free stimulation buffer (the aforementioned stimulation buffer supplemented with 1 mM EGTA), or with additional 2 mM divalent ions in Ca^2+-free stimulation buffer ([divalent ions] = ~1 mM)[38]. The rest of steps were essentially the same as described above.

MC3R = assay: Effect of divalent ions on cAMP accumulation, MC3R; type: cell-based, human
Method: as §1

wild-type MC2R on cells = wild-type MC2R on cells (UniProt Q01718)
[1] = biological target: MC5R mutant F254^6.51A (human) (UniProt P33032)
Chain of MC5R mutant F254^6.51A (human) (P33032 other isoform, or with tags, fused parts or gaps mutant): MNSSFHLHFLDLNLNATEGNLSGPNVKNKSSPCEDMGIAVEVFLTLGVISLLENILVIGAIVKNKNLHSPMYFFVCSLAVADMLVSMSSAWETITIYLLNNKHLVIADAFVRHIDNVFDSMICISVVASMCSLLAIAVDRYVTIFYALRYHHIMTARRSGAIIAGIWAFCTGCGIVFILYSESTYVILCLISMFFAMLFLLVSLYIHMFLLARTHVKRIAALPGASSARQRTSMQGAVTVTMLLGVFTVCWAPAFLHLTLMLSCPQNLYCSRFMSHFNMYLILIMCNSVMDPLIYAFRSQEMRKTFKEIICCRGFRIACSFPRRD

[2] = biological target: MC5R mutant D115^3.25A (human) (UniProt P33032)
Chain of MC5R mutant D115^3.25A (human) (P33032 other isoform, or with tags, fused parts or gaps mutant): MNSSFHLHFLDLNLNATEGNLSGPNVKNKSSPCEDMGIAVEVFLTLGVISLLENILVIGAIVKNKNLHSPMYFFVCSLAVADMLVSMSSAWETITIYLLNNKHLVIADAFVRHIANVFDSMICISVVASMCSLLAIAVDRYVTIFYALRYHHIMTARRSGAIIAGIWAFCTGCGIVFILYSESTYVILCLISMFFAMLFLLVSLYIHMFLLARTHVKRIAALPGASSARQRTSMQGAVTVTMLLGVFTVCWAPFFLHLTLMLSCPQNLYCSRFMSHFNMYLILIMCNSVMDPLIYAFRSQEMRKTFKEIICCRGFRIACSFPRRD

[3] = biological target: MC5R mutant D119^3.29A (human) (UniProt P33032)
Chain of MC5R mutant D119^3.29A (human) (P33032 other isoform, or with tags, fused parts or gaps mutant): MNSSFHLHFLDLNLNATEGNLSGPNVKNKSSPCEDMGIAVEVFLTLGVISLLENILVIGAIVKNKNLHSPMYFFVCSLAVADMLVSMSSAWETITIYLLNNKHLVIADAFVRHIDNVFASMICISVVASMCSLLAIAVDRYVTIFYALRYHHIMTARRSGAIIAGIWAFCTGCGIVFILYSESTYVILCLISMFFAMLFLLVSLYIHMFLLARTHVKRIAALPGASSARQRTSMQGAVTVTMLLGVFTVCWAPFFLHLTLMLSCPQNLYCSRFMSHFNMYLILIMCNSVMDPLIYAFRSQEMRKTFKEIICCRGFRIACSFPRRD

[4] = biological target: wild-type MC5R on cells (human) (UniProt P33032)
Chain of wild-type MC5R on cells (human) (P33032 whole entry): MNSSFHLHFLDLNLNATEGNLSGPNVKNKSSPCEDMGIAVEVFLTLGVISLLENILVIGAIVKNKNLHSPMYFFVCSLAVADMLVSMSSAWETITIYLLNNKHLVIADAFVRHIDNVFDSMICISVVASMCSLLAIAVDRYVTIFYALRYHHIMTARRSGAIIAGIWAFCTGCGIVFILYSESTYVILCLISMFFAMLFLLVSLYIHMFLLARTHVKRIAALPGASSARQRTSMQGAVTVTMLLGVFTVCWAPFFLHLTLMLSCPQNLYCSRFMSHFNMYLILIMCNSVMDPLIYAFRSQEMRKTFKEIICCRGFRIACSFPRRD

[5] = biological target: MC3R mutant L128^3.36A (human) (UniProt P41968)
Chain of MC3R mutant L128^3.36A (human) (P41968 other isoform, or with tags, fused parts or gaps mutant): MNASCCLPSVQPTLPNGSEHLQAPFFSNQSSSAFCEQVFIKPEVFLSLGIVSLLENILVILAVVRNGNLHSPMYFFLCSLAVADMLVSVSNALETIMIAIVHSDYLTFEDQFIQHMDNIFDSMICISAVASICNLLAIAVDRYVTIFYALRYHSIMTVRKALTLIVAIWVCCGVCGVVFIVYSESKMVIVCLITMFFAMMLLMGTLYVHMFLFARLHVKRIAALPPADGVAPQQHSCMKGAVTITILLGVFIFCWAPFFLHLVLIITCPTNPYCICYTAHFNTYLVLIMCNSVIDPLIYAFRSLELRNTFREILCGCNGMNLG

[6] = biological target: MC3R mutant L128^3.36V (human) (UniProt P41968)
Chain of MC3R mutant L128^3.36V (human) (P41968 other isoform, or with tags, fused parts or gaps mutant): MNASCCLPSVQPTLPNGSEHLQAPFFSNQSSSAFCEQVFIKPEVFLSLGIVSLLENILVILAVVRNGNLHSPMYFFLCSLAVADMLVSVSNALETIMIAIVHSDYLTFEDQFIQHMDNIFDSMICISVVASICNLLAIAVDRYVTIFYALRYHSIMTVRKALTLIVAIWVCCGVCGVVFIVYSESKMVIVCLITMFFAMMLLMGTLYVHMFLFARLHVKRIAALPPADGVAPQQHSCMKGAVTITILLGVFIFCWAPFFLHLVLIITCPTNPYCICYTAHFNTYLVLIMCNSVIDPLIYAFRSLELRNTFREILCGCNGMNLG

[7] = biological target: MC5R mutant D115^3.25A (human) (UniProt P33032); remark: listed apart in the source
[8] = biological target: MC5R mutant F118^3.28A (human) (UniProt P33032)
Chain of MC5R mutant F118^3.28A (human) (P33032 other isoform, or with tags, fused parts or gaps mutant): as the sequence (P33032 whole entry) above, with F118A counted along it

[9] = biological target: MC5R mutant F254^6.51A (human) (UniProt P33032); remark: listed apart in the source
[10] = biological target: MC5R mutant L99^2.67A (human) (UniProt P33032)
Chain of MC5R mutant L99^2.67A (human) (P33032 other isoform, or with tags, fused parts or gaps mutant): as the sequence (P33032 whole entry) above, with L99A counted along it

[11] = biological target: MC5R mutant V126L (human) (UniProt P33032)
Chain of MC5R mutant V126L (human) (P33032 whole entry V126L): as the sequence (P33032 whole entry) above, with V126L counted along it

[12] = biological target: MC5R mutant V126^3.36A (human) (UniProt P33032)
Chain of MC5R mutant V126^3.36A (human) (P33032 other isoform, or with tags, fused parts or gaps mutant): as the sequence (P33032 whole entry) above, with V126A counted along it

MC2R = assay: Effect of divalent ions on cAMP accumulation, MC2R; type: cell-based; conditions: 1 mM Ca^2+ vs divalent ion-free background, HEK293T
Method: as §1

[13] = biological target: MC3R mutant D121^3.29A (human) (UniProt P41968)
Chain of MC3R mutant D121^3.29A (human) (P41968 other isoform, or with tags, fused parts or gaps mutant): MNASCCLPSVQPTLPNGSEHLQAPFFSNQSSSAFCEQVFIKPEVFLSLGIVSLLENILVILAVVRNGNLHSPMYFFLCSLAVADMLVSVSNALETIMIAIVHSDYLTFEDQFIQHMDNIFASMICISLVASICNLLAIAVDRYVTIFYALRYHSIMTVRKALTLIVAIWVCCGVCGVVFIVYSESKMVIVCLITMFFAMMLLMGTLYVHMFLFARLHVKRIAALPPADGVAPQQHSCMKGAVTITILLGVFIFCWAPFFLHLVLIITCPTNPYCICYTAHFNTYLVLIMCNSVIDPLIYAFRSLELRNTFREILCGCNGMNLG

[14] = biological target: MC3R mutant F258^6.51A (human) (UniProt P41968)
[15] = biological target: MC3R mutant F45^1.39A (human) (UniProt P41968)
Chain of MC3R mutant F45^1.39A (human) (P41968 other isoform, or with tags, fused parts or gaps mutant): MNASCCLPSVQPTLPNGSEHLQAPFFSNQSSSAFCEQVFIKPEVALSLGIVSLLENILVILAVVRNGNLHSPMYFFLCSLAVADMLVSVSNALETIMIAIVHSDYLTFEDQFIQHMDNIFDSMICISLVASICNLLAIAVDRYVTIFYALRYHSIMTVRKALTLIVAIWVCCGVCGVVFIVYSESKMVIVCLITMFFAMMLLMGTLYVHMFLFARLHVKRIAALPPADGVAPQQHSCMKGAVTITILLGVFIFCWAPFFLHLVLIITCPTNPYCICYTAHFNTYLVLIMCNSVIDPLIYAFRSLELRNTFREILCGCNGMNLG

[16] = biological target: MC3R mutant H261^6.54A (human) (UniProt P41968)
Chain of MC3R mutant H261^6.54A (human) (P41968 other isoform, or with tags, fused parts or gaps mutant): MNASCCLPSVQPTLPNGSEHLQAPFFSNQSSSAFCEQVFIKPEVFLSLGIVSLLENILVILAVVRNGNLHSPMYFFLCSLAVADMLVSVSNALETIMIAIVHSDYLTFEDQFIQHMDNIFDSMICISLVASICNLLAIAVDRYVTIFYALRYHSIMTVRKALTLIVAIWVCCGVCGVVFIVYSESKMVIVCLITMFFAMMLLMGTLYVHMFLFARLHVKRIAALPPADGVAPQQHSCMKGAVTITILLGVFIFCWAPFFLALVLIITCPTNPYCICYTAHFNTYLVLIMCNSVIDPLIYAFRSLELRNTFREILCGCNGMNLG

[17] = biological target: MC3R mutant I180^4.61A (human) (UniProt P41968)
[18] = biological target: MC3R mutant I265^6.58M (human) (UniProt P41968)
Chain of MC3R mutant I265^6.58M (human) (P41968 other isoform, or with tags, fused parts or gaps mutant): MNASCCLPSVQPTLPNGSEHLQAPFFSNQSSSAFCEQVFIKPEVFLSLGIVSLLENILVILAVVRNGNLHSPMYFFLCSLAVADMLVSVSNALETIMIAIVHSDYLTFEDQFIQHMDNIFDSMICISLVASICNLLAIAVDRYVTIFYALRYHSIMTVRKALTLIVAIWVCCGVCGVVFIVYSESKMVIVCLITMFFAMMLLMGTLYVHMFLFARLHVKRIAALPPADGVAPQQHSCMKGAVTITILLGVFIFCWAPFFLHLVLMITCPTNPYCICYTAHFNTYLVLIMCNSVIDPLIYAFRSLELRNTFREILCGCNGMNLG

[19] = biological target: MC3R mutant I265^6.58W (human) (UniProt P41968)
[20] = biological target: MC3R mutant I265^6.58Y (human) (UniProt P41968)
Chain of MC3R mutant I265^6.58Y (human) (P41968 other isoform, or with tags, fused parts or gaps mutant): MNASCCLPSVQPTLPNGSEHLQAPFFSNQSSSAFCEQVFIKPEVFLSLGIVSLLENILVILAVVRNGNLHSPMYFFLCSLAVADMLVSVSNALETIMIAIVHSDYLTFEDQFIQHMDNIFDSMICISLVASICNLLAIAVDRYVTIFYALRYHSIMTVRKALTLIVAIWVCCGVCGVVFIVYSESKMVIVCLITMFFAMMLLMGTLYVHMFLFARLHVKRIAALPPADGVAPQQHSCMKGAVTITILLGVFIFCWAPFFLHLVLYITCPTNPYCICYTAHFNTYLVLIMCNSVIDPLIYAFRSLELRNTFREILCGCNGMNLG

wild-type MC1R on cells = wild-type MC1R on cells (UniProt Q01726)
[21] = biological target: wild-type MC3R on cells (human) (UniProt P41968)
[22] = biological target: MC3R mutant F45^1.39A (human) (UniProt P41968); remark: listed apart in the source

[Mg+2] [Mg^2+, magnesium ion]
effect of Mg^2+ on Gs signaling (MC5R; 1 mM Mg^2+): neglectable impact; also recorded: little impact
effect of Mg^2+ on Gs signaling (MC3R; 1 mM Mg^2+): neglectable impact; also recorded: little impact

adrenocorticotropic hormone (peptide)
ACTH-induced cAMP accumulation, HEK293T cells; fold increase of potency with 1 mM Ca2+ against a divalent ion-free background (wild-type MC2R on cells): 6310 fold

α-MSH (peptide)
α-MSH-induced cAMP accumulation, HEK293T cells; fold decrease of potency against WT [1]: > 100 fold
α-MSH-induced cAMP accumulation, HEK293T cells; fold decrease of potency against WT [2]: 269 fold
α-MSH-induced cAMP accumulation, HEK293T cells; fold reduction against WT [3]: 447 fold
α-MSH-induced cAMP accumulation, HEK293T cells; fold increase of potency with 1 mM Ca2+ against a divalent ion-free background [4]: 182 fold

PG-901 (peptide)
PG-901-induced cAMP response, HEK293T cells; EC50 [5]: 0.25 µM
PG-901-induced cAMP response, HEK293T cells; EC50 [6]: 0.032 µM
PG-901-induced cAMP accumulation, HEK293T cells; fold reduction against WT [7]: 43 fold
PG-901-induced cAMP accumulation, HEK293T cells; fold reduction against WT [8]: 4 fold
PG-901-induced cAMP accumulation, HEK293T cells; fold decrease of potency against WT [9]: 44 fold
PG-901-induced cAMP accumulation, HEK293T cells; fold reduction against WT [10]: 10 fold
PG-901-induced cAMP responses, HEK293T cells; fold reduction against WT [11]: 16 fold
PG-901-induced cAMP accumulation, HEK293T cells; fold decrease of potency against WT [12]: 8 fold
PG-901-induced cAMP accumulation, HEK293T cells; fold increase of potency with 1 mM Ca2+ against a divalent ion-free background [4]: 230 fold

[Zn+2] [Zn^2+, zinc ion]
effect of Zn^2+ on ligand-induced cAMP response (MC5R; 1 mM Zn^2+, α-MSH or PG-901): dramatic reduction of cAMP response; also recorded: inhibited the efficacy
effect of Zn^2+ on ligand-induced cAMP response (MC3R; 1 mM Zn^2+, γ-MSH): dramatic reduction of cAMP response; also recorded: inhibited the efficacy

adrenocorticotropic hormone (SYSMEHFRWGKPVGKKRRPVKVYPNGAEDESAEAFPLEF; Corticotropin; UniProt P01189 138-176, looked up) [ACTH]
increase of potency by Ca^2+ (MC2R): 6309 fold

γ-MSH (peptide)
γ-MSH-induced cAMP accumulation, HEK293T cells; fold decrease of potency against WT [13]: 22 fold
γ-MSH-induced cAMP accumulation, HEK293T cells; fold decrease of potency against WT [14]: 30 fold
γ-MSH-induced cAMP accumulation, HEK293T cells; fold reduction of potency against WT [15]: 126 fold
γ-MSH-induced cAMP accumulation, HEK293T cells; fold decrease of potency against WT [16]: 32 fold
γ-MSH-induced cAMP accumulation, HEK293T cells; fold decrease of potency against WT [17]: 22 fold
γ-MSH-induced cAMP accumulation, HEK293T cells; fold decrease of potency against WT [18]: 3 fold
γ-MSH-induced cAMP accumulation, HEK293T cells; fold decrease of potency against WT [19]: 18 fold
γ-MSH-induced cAMP accumulation, HEK293T cells; fold decrease of potency against WT [20]: 4 fold
γ-MSH-induced cAMP accumulation, HEK293T cells; fold increase of potency with 1 mM Ca2+ against a divalent ion-free background (wild-type MC1R on cells): 294 fold
γ-MSH-induced cAMP accumulation, HEK293T cells; fold increase of potency with 1 mM Ca2+ against a divalent ion-free background [21]: 407 fold
fold reduction of binding affinity against the wild type [22]: 48 fold

— PMC10390531, “Structural insights into ligand recognition and subtype selectivity of the human melanocortin-3 and melanocortin-5 receptors” (Cell Discovery, 2023)
